# Test results from the supplement of paper PMC10201428.
# ± gives the standard deviation of the averaged measurements.
# How the values were obtained:
# [1] = tested on: VchCAST RNA-guided transposition machinery (E. coli BL21(DE3) host, lacZ target); assay: relative integration efficiency (T-RL orientation) vs wild-type transposon end (log2 (normalized fold change)); transposon end mutated: right end (5 bp flank + 75 bp right end); higher = more efficient transposition
# Procedure, shortened: (§1)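 Co-transformation of E. coli BL21(DE3) combined a pUC57 mini-transposon donor, holding barcoded pools of 1549 left-end or 1849 right-end variants, with a T7-driven plasmid encoding a CRISPR array, tniQ-cas8-cas7-cas6 and tnsA-tnsB-tnsC. After plating with 0.1 mM IPTG at 37°C for 18 h, input plasmids and genomic integration junctions were PCR-amplified and Illumina-sequenced across two biological output replicates, with four reference barcodes. Relative integration efficiency is the normalised, log-transformed output/input barcode fold change.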
# [2] = tested on: VchCAST RNA-guided transposition machinery (E. coli BL21(DE3) host, lacZ target); assay: relative integration efficiency (T-LR orientation) vs wild-type transposon end (log2 (normalized fold change)); transposon end mutated: right end (5 bp flank + 75 bp right end); higher = more efficient transposition
# Procedure, shortened: as §1
Sequence,relative integration efficiency (log2) [1],relative integration efficiency (log2) [2]
ACATTTGTGGATACAACCATAAAACGATAATTACACCCATAAATTGATCATTATCACACCCAATTTAACTATAACGCTCTGATCATAGTCAGACCAACATTGCTACGACCCGTATTCGCACCGACAC,-1.43 ± 0.24,2.1 ± 0.088
ACATTTGTGGATACAACCATAAAATGATAATTACACCCATAAATGGATAATTATCACACCCAATTTAACTATAACGCTCTGATCATAGTCAGACCAACATTGCTACGACCCGTATTCGCACCGACAC,-0.586 ± 0.33,2.14 ± 0.031
ACATTTGTGGATACAACCATAAAATGATAATTACACCCATAAATGGATAATTATCACCCCCAATTTAACTATAACGCTCTGATCATAGTCAGACCAACATTGCTACGACCCGTATTCGCACCGACAC,-1.15 ± 0.23,1.55 ± 0.31
ACATTTGTGGATACAACCATAAAATGATAATTACACCCATAAATGGATCATTATCACACCCAATTTAACTATAACGCTCTGATCATAGTCAGACCAACATTGCTACGACCCGTATTCGCACCGACAC,-1.53 ± 0.23,1.01 ± 0.2
ACATTTGTGGATACAACCATAAAATGATAATTACACCCATAAATGGATCATTATCACCCCCAATTTAACTATAACGCTCTGATCATAGTCAGACCAACATTGCTACGACCCGTATTCGCACCGACAC,-1.28 ± 0.28,1.36 ± 0.19
ACATTTGTGGATACAACCATAAAATGATAATTACACCCATAAATGGATTATTATCACACCCAATTTAACTATAACGCTCTGATCATAGTCAGACCAACATTGCTACGACCCGTATTCGCACCGACAC,-1.72 ± 0.3,1.2 ± 0.22
ACATTTGTGGATACAACCATAAAATGATAATTACACCCATAAATTCATAATTATCACACCCAATTTAACTATAACGCTCTGATCATAGTCAGACCAACATTGCTACGACCCGTATTCGCACCGACAC,-1.9 ± 0.49,0.877 ± 0.27
ACATTTGTGGATACAACCATAAAATGATAATTACACCCATAAATTCATAATTATCACCCCCAATTTAACTATAACGCTCTGATCATAGTCAGACCAACATTGCTACGACCCGTATTCGCACCGACAC,-1.64 ± 0.37,1.27 ± 0.13
ACATTTGTGGATACAACCATAAAATGATAATTACACCCATAAATTCATCATTATCACACCCAATTTAACTATAACGCTCTGATCATAGTCAGACCAACATTGCTACGACCCGTATTCGCACCGACAC,-2.03 ± 0.49,1.48 ± 0.12
ACATTTGTGGATACAACCATAAAATGATAATTACACCCATAAATTCATCATTATCACCCCCAATTTAACTATAACGCTCTGATCATAGTCAGACCAACATTGCTACGACCCGTATTCGCACCGACAC,-1.88 ± 0.43,1.385 ± 0.0021
ACATTTGTGGATACAACCATAAAATGATAATTACACCCATAAATTCATTATTATCACACCCAATTTAACTATAACGCTCTGATCATAGTCAGACCAACATTGCTACGACCCGTATTCGCACCGACAC,-2.59 ± 0.53,0.908 ± 0.36
ACATTTGTGGATACAACCATAAAATGATAATTACACCCATAAATTGATAATTATCACCCCCAATTTAACTATAACGCTCTGATCATAGTCAGACCAACATTGCTACGACCCGTATTCGCACCGACAC,-0.606 ± 0.13,2.44 ± 0.065
ACATTTGTGGATACAACCATAAAATGATAATTACACCCATAAATTGATCATTATCACACCCAATTTAACTATAACGCTCTGATCATAGTCAGACCAACATTGCTACGACCCGTATTCGCACCGACAC,-1.46 ± 0.31,1.89 ± 0.19
ACATTTGTGGATACAACCATAAAATGATAATTACACCCATAAATTGATCATTATCACCCCCAATTTAACTATAACGCTCTGATCATAGTCAGACCAACATTGCTACGACCCGTATTCGCACCGACAC,-1.27 ± 0.17,1.99 ± 0.056
ACATTTGTGGATACAACCATAAAATGATAATTACACCCATAAATTTATAATTATCACACCCAATTTAACTATAACGCTCTGATCATAGTCAGACCAACATTGCTACGACCCGTATTCGCACCGACAC,-1.09 ± 0.41,1.8 ± 0.36
ACATTTGTGGATACAACCATAAAATGATAATTACACCCATAAATTTATTATTATCACACCCAATTTAACTATAACGCTCTGATCATAGTCAGACCAACATTGCTACGACCCGTATTCGCACCGACAC,-2.14 ± 0.55,1.47 ± 0.11
ACATTTGTGGATACAACCATAAAATGATAATTACCACCCATAAATTGATAATTATCACACCCATTTAACTATAACGCTCTGATCATAGTCAGACCAACATTGCTACGACCCGTATTCGCACCGACAC,-1.11 ± 0.24,1.54 ± 0.083
ACATTTGTGGATACAACCATAAAATGATAATTACCACCCATACATTGATAATTATCACACCCATTTAACTATAACGCTCTGATCATAGTCAGACCAACATTGCTACGACCCGTATTCGCACCGACAC,-2.53 ± 0.19,-0.296 ± 0.095

Sequence,relative integration efficiency (log2) [1],relative integration efficiency (log2) [2]
ACATTTGTGGATACAACCATAAAATGATAATTACCACCCCTAAATTGATAATTATCACACCCATTTAACTATAACGCTCTGATCATAGTCAGACCAACATTGCTACGACCCGTATTCGCACCGACAC,-2.781 ± 0.006,-0.51 ± 0.037
ACATTTGTGGATACAACCATAAAATGATAATTACCACCCCTACATTGATAATTATCACACCCATTTAACTATAACGCTCTGATCATAGTCAGACCAACATTGCTACGACCCGTATTCGCACCGACAC,-3.07 ± 0.21,-0.503 ± 0.055
ACATTTGTGGATACAACCATAAAATGATAATTCACCCATAAATTGATAATTATCACACCCCAATTTAACTATAACGCTCTGATCATAGTCAGACCAACATTGCTACGACCCGTATTCGCACCGACAC,-1.92 ± 0.17,1.23 ± 0.028
ACATTTGTGGATACAACCATAAAATGATAATTCACCCATCAATTGATAATTATCACACCCCAATTTAACTATAACGCTCTGATCATAGTCAGACCAACATTGCTACGACCCGTATTCGCACCGACAC,-2.89 ± 0.38,0.328 ± 0.26
ACATTTGTGGATACAACCCTAAAATGATAATTACACCCATAAATGGATAATTATCACACCCAATTTAACTATAACGCTCTGATCATAGTCAGACCAACATTGCTACGACCCGTATTCGCACCGACAC,-3.64 ± 0.39,-0.593 ± 0.47
ACATTTGTGGATACAACCCTAAAATGATAATTACACCCATAAATGGATAATTATCACCCCCAATTTAACTATAACGCTCTGATCATAGTCAGACCAACATTGCTACGACCCGTATTCGCACCGACAC,-3.8 ± 0.4,-1.16 ± 0.27
ACATTTGTGGATACAACCCTAAAATGATAATTACACCCATAAATGGATCATTATCACACCCAATTTAACTATAACGCTCTGATCATAGTCAGACCAACATTGCTACGACCCGTATTCGCACCGACAC,-3.94 ± 0.38,-1.6 ± 0.071
ACATTTGTGGATACAACCCTAAAATGATAATTACACCCATAAATGGATCATTATCACCCCCAATTTAACTATAACGCTCTGATCATAGTCAGACCAACATTGCTACGACCCGTATTCGCACCGACAC,-4.36 ± 0.35,-1.88 ± 0.26
ACATTTGTGGATACAACCCTAAAATGATAATTACACCCATAAATTCATAATTATCACACCCAATTTAACTATAACGCTCTGATCATAGTCAGACCAACATTGCTACGACCCGTATTCGCACCGACAC,-5.07 ± 0.49,-2.97 ± 0.11
ACATTTGTGGATACAACCCTAAAATGATAATTACACCCATAAATTCATAATTATCACCCCCAATTTAACTATAACGCTCTGATCATAGTCAGACCAACATTGCTACGACCCGTATTCGCACCGACAC,-4.88 ± 0.16,-2.64 ± 0.13
ACATTTGTGGATACAACCCTAAAATGATAATTACACCCATAAATTCATCATTATCACACCCAATTTAACTATAACGCTCTGATCATAGTCAGACCAACATTGCTACGACCCGTATTCGCACCGACAC,-4.92 ± 0.15,-1.67 ± 0.21
ACATTTGTGGATACAACCCTAAAATGATAATTACACCCATAAATTCATCATTATCACCCCCAATTTAACTATAACGCTCTGATCATAGTCAGACCAACATTGCTACGACCCGTATTCGCACCGACAC,-4.53 ± 0.011,-1.47 ± 0.4
ACATTTGTGGATACAACCCTAAAATGATAATTACACCCATAAATTGATAATTATCACACCCAATTTAACTATAACGCTCTGATCATAGTCAGACCAACATTGCTACGACCCGTATTCGCACCGACAC,-1.73 ± 0.26,1.32 ± 0.36
ACATTTGTGGATACAACCCTAAAATGATAATTACACCCATAAATTGATAATTATCACCCCCAATTTAACTATAACGCTCTGATCATAGTCAGACCAACATTGCTACGACCCGTATTCGCACCGACAC,-2.2 ± 0.29,0.686 ± 0.29
ACATTTGTGGATACAACCCTAAAATGATAATTACACCCATAAATTGATCATTATCACACCCAATTTAACTATAACGCTCTGATCATAGTCAGACCAACATTGCTACGACCCGTATTCGCACCGACAC,-3.19 ± 0.51,0.117 ± 0.091
ACATTTGTGGATACAACCCTAAAATGATAATTACACCCATAAATTGATCATTATCACCCCCAATTTAACTATAACGCTCTGATCATAGTCAGACCAACATTGCTACGACCCGTATTCGCACCGACAC,-2.87 ± 0.27,0.316 ± 0.5
ACATTTGTGGATCCAACCATAAAATGATAATTACACCCATAAATGGATAATTATCACACCCAATTTAACTATAACGCTCTGATCATAGTCAGACCAACATTGCTACGACCCGTATTCGCACCGACAC,-1.38 ± 0.18,1.18 ± 0.021
